Reference: patent US20240150805A1, “Glycosylated Opioids” (River Stone Biotech ApS, priority 2021, published 2024)

Experiments:
[1] = Effect of N-terminal tags on UGT activity in yeast bioconversion of oripavine; assay type: cell-based, Saccharomyces cerevisiae; details: UGT with solubility tag
[2] = Test of additional UGT (SEQ ID NO: 170) in yeast fed with oripavine; assay type: cell-based, Saccharomyces cerevisiae; details: Delft pH 5.5 media, 2 mM oripavine, 3 days, 30 degrees Celsius
Procedure: An additional UGT (SEQ ID NO: 170) with 62% identity at the protein level to SEQ ID NO: 96 was also tested in a similar manner as above. Briefly, cells were grown overnight in SC-HLU and used to inoculate Delft pH 5.5 media containing 2 mM oripavine. After growth with shaking at 30 degrees Celsius for 3 days, total extracts were obtained by mixing the cultures with an equal volume of 0.2% formic acid and heating at 80 degrees Celsius for 10 minutes. After centrifugation, the supernatant was diluted in 0.1% formic acid for quantification by HPLC as described in the Materials and Methods. UGT SEQ ID NO: 170 was active for glucosylation on both oripavine and nororipavine however it produced 41% of the noropavine-glu relative to SEQ ID NO: 96 and 35% of oripavine-glu relative to SEQ ID NO: 96.

[3] = In vitro glucosylation of oripavine and nororipavine by purified UGTs; assay type: biochemical; details: purified UGT, 500 μM substrate, overnight at 30° C., HPLC
Procedure: Glucosylation samples of a 20 μL total reaction volume for each UGT to be tested were prepared in 96-well microtiter plates as follows:
The microtiter plate was sealed with an adhesive seal, spun shortly and the glucosylation samples were incubated overnight at 30° C. After incubation, glucosylation reaction was terminated by adding 3 volumes (60 μL) of ice-cold 100% methanol the reaction volume and mixing well, followed by centrifugation of the plate at 3000 rpm for 5 min at 4° C. and analysis by HPLC.
The 72UGTs of Table 5 were tested in vitro to using the test setup of example 3 identify those having having specificity toward nororipavine.

B1: SEQ ID NO: 212: UGT fused N-terminally to a solubility tag (protein)
chain: METHINLKVSDGSSEIFFKIKKTTPLRRLMEAFAKRQGKEMDSLRFLYDGIRIQADQTPEDLDMEDNDIIEAHREQIGGGGGGSEQKPHIALLPSPGMGHLIPLVEFAKQFVLHHDFHITCIIPVLGSPSKAMKAVLQALPTTIDHVFLPPVILEEEEIKGLKFEVQTILTLTRSLPPLREVLKTTRFSAFVVDPFGIDALDIAKELNISPYIFFPSNAFALSLIFHLPKLDETVSCEYRDLPEPLKLPGCIPIHGRDLIEPVQDRTSELYKMFLRNAKRFRLAEGIIVNTFMELEGSAIKALLDEEAKNLPLYPIGPIQSGSSNLQVDKSVSDCLRWLDNQPHGSVLFVCFGSGGTLSYDQTNELALGLELSGQKFLWVVRTPNNESADAAYLSDQILDNNPLDFLPKGFVERTEGQGLAVPSWAPQAQVLSHGSTGGFLTHCGWNSTLESIMQGIPLIAWPLYAEQKMNAPLLAEDLKVALRPKTNKSGLIDQEEIAKVVKGLMIGEEGKKVYNRMKDIKMAAEKALSADGSSTKALSELASQWKNHPGF
amounts of glucosylated nororipavine compared to the untagged UGT alone [1]: higher

B2: SEQ ID NO: 204: UGT fused N-terminally to a solubility tag (protein)
chain: MKAQYEDGKQYTTLEKPVAGAPQVLEFFSFFCPHCYQFEEVLHISDNVKKKLPEGVKMTKYHVNFMGGDLGKDLTQAWAVAMALGVEDKVTVPLFEGVQKTQTIRSASDIRDVFINAGIKGEEYDAAWNSFVVKSLVAQQEKAAADVQLRGVPAMFVNGKYQLNPQGMDTSNMDVFVQQYADTVKYLSEKKGGGGSEQKPHIALLPSPGMGHLIPLVEFAKQFVLHHDFHITCIIPVLGSPSKAMKAVLQALPTTIDHVFLPPVILEEEEIKGLKFEVQTILTLTRSLPPLREVLKTTRFSAFVVDPFGIDALDIAKELNISPYIFFPSNAFALSLIFHLPKLDETVSCEYRDLPEPLKLPGCIPIHGRDLIEPVQDRTSELYKMFLRNAKRFRLAEGIIVNTFMELEGSAIKALLDEEAKNLPLYPIGPIQSGSSNLQVDKSVSDCLRWLDNQPHGSVLFVCFGSGGTLSYDQTNELALGLELSGQKFLWVVRTPNNESADAAYLSDQILDNNPLDFLPKGFVERTEGQGLAVPSWAPQAQVLSHGSTGGFLTHCGWNSTLESIMQGIPLIAWPLYAEQKMNAPLLAEDLKVALRPKTNKSGLIDQEEIAKVVKGLMIGEEGKKVYNRMKDIKMAAEKALSADGSSTKALSELASQWKNHPGF
amounts of glucosylated nororipavine compared to the untagged UGT alone [1]: higher

B3: SEQ ID NO: 170: additional UGT with 62% identity at the protein level to SEQ ID NO: 96 (protein)
chain: MEQTPHIAIMPTQGMGHLIPLVEFAKRLVLTHNFSATFLIPTDPGRLPAAQKSFLDSLPAGINYVLLPPVNFDDLPDDVGSETRISLAVVRSLPSLRDALKSLVSGFRVVALVVDLFGTDAFDVAAEFNVSPYIFYPSTAMALSLFLHLPKLDESVSCEYRDLPEPVQIPGCIPVHGKDLLDPVQDRKNGAYKWLLHQVKRYRLAEGIMVNSFKELEGGAIKALQEEEPGKPPVYPIGPLVQMDGADEKSECLRWLDDQPRGSVLFVSFGSGGTLSYDQLNELALGLEMSEQRFLWVVRSPNNKSANATYFSVNSQNDPFAFLPKGFLERTKGYGLVVPSWAPQVRVLSHGSTGGFLTHCGWNSTLESVVNGVPLIAWPFYAEQKMNAVMLTEDLKVALRLRIGENGIIGRAEIAKVVKGLMEGEEGKQIRSRMIDLKDAAARALGEDGDSTKSLAELAQKWKNKIIS
noropavine-glu produced relative to SEQ ID NO: 96 [2]: 41%
oripavine-glu produced relative to SEQ ID NO: 96 [2]: 35%

B4: PWA70520: subfamily 71 UGT (protein, listed as Artemisia annua)
chain: MTTLELVFIPSPGAGHLPPTVELAKLLLDHDQRLSVTIIIMNLPFEAEQVTETPISTPRLNFIYVANEDSSKDLISPHTFMSAFLEHQKPKLKNIIRDITESDSVRLVGFIVDMFCIAMIDVANEFGVPTYVYFTSSASALGLMFHLQAKCDDEEYDVTDLKDSDLMLSIPSYVKPIPAKLLPSVLFDKQGGSKMFIDLAKKFRESEGIIINSFQELESHGLEFLIKGDPNIPPVFPVGPILNLKNTKNDGKTTDIMAWLDNQPKSSVVFLCFGSMGSFGEKQVKEIAVALERSEHRFLWSLRRPPSKEVMRLPEEYENFKEVLPEGFLECTSNLGKVIGWAPQTSVLSHPSLGGFVSHCGWNSTLESIWFGVPVAAWPLYAEQQINAFQLVMELGIAAEIKIDYKSNIGPGGGSNEMLVKADEIESGIRRLMNDDDMRRNVKEMKHMSRLTVTEGGSSYASIKRFIELVITNT
preference for nororipavine glucosylation compared to oripavine glucosylation [3]: preference for glucosylation of nororipavine

B5: XP_023914549: subfamily 72 UGT, sequence homolog of Qs72S_1 (protein)
chain: MEQKPHIALLPSPGMGHLIPLVEFAKQFVLHHDFRITCIVPVLGSPSKAMKAVLQALPTTIDHVFLPPVKLEEEEIRGLKFEVQTILTLTRSLPPLREVLKSTRFSAFVVDPFGIDALDIAKELNISPYIFFPTNAFALSLIFHLPKLDKTVSCEYRDLPEPLKLPGCIPIHGRDLSEPVQDRTSELYKMFLRNAKRFRLAEGIIVNTFMELERSAIKALLDEEAKNLPLYPIGPIQSGSSNQVDKSESDCLRWLENQPHGSVLFVCFGSGGTLSYDQTNELALGLELSGQKFLWVVRTPNNESADAAYLSDQTLDNNPLAFLPKGFVERTEGQGLAVPSWAPQAQVLSHGSTGGFLTHCGWNSILESVMQGIPLIAWPLYAEQKMNAVLLAEDLKVALRPKTNKNGLIDREEIAKVVKGLMVGEEGKKVRNRMKDIKIAAVKALSADGSSTKALSELASQWKNHPGF
modifications: Quercus suber
preference for nororipavine glucosylation compared to oripavine glucosylation [3]: particularly strong preference for Nororipavine glucosylation

B6: SEQ ID NO: 214: UGT fused N-terminally to a solubility tag (protein)
chain: METHINLKVSDGSSEIFFKIKKTTPLRRLMEAFAKRQGKEMDSLRFLYDGIRIQADQTPEDLDMEDNDIIEAHREQIGGGGGGSGGGGSGGGGSEQKPHIALLPSPGMGHLIPLVEFAKQFVLHHDFHITCIIPVLGSPSKAMKAVLQALPTTIDHVFLPPVILEEEEIKGLKFEVQTILTLTRSLPPLREVLKTTRFSAFVVDPFGIDALDIAKELNISPYIFFPSNAFALSLIFHLPKLDETVSCEYRDLPEPLKLPGCIPIHGRDLIEPVQDRTSELYKMFLRNAKRFRLAEGIIVNTFMELEGSAIKALLDEEAKNLPLYPIGPIQSGSSNLQVDKSVSDCLRWLDNQPHGSVLFVCFGSGGTLSYDQTNELALGLELSGQKFLWVVRTPNNESADAAYLSDQILDNNPLDFLPKGFVERTEGQGLAVPSWAPQAQVLSHGSTGGFLTHCGWNSTLESIMQGIPLIAWPLYAEQKMNAPLLAEDLKVALRPKTNKSGLIDQEEIAKVVKGLMIGEEGKKVYNRMKDIKMAAEKALSADGSSTKALSELASQWKNHPGF
amounts of glucosylated nororipavine compared to the untagged UGT alone [1]: higher
